Measured values as given in patent US20070180545A1.
“And” between values parts separate entries of the source, which are not always exact repeats. Equal entries are not always repeated.

Experiments:
[1] = molecular target: TAT-031 as present on the surface of human tumor cell lines (PC3, H1299, HL-60) (human) (UniProt P08195); test: flow cytometry on PC-3 human tumor cells
[2] = molecular target: TAT-031 as present on the surface of human tumor cell lines (PC3, H1299, HL-60) (human) (UniProt P08195); test: flow cytometry on H1299 human tumor cells
[3] = molecular target: TAT-031 as present on the surface of human tumor cell lines (PC3, H1299, HL-60) (human) (UniProt P08195); test: flow cytometry on HL-60 human tumor cells
[4] = molecular target: TAT-031 (full-length clone expressed from phCMV1-TAT-031 on stably transfected cells) (human) (UniProt P08195); test: flow cytometry on BaF3 cells stably transfected with TAT-031 (SLC3A2)

Mouse monoclonal antibody 44D7 (Abcam, Cat#AB23495)
relative geometric mean fluorescence (relative geometric mean fluorescence) [1]: 153 and 98.6 and 86 | relative geometric mean fluorescence (relative geometric mean fluorescence) [2]: 527 and 419 and 389 | relative geometric mean fluorescence (relative geometric mean fluorescence) [3]: 118 and 257 and 205 | relative geometric mean fluorescence (relative geometric mean fluorescence) [4]: 165 and 102
